Measured values taken from the DeepSol protein solubility set.

test: soluble on expression in E. coli; label from the status in PepcDB or PDB records

Sequence	soluble on expression in E. coli
MDETTIRRLTEEDVDIFRAMRLEALRTEPAAYASTAADWEKLSADEWRTRLTQNNVFAAFWNDAPVGIMGLMRQGSSKMAHRATLIMVYVRAEARGTGIARALLEAVKSFAGDNGIRQIELAVSAENPAAASFYKRAGFSQIGCVPGGILHEGREIDDIMMACRVDAEGKE	not soluble
MDFEKIRKWLEITNEYKQSDFWTNVLKYKAPEHFFDSEASTFVYDFYQDEEYNFIIVEMPGVYEEELTIRLLSKTQLLIKGTITPVFPAEMEVLRERYYGEIERIIQLPEAAETHLLQIQLLNGLLHISYPRQVETVAFNKGLLEHHHHHH	not soluble
MDFHLRNKLNLPGNLPQPPNTNLNLPPNVPALLIQSSIKYSELEKFVRRGLHASGVFVIEDPTTTGVAQLKILSERWGDLPTAIDIQGRAQEYSLRYAAIFTLIDGNGEVVVPQQVIELSRDYRSPPVDATGTTTEREILVNELRRDMSASILRRIDSVIRSRLEKRELLEQAKPPSPATSGALEHHHHHH	not soluble
MDGCYGISDSVGMITQPYRLYVERTDCKKNMARYYAMEITTTLFGDACLTRSWGRIGKRGQSKMHHFEREEEAVDLFLTLTRQKRSRGYRPATGRDRGLEHHHHHH	not soluble
MDGDFRTDFVREPGALKHHPALVLNADYRPLSYYPLSLWPWQEAIKAAWLDRVDIIAEYDEVVRSPSVVLRIPSVVVLKDYVKPQKRVAFTRFNLFLRDEFRCQYCGGKGDLTFDHVVPRAAGGVTSWENVVAACAPCNLRKGSKSLRQANMSLRRPPRRPQAEELQNVGRKFPPNHLHESWMDFLYWDAELDALEHHHHHH	not soluble
MDGDFRTSFVREPAGLRPYPALVLNADYRPLSYYPLSLWPWQEAIKAAFLDRVSIVAEYDQVVRSQRAALRIPSVVVLKEFVSPQKRVAFTRFNLFLRDEFRCQYCGAKGDLTFDHVVPRARGGVTSWQNVVAACSPCNLHKGSKTLKQAGMRLARIPREPTPAEMQRHGQRFPPNHLHDSWLDYLYWDAELEALEHHHHHH	not soluble
MDGELRALLNAVLERLDVQGVYIEQMRMDIVKLQGSVKQLEDKVDRIQSDVEAMKKDMDAMKKDMDAMKKDMLGVKKDVAALKEGQVRQEKIMERLAIRSIEQEAEIDELRKEISA	not soluble
MDGGADLYKPGEPGAMKKPKSVRQERILTELNQAPSLRVAELARRLDVSTETIRRDLDEMTEQGLLNRTYGGAVRSLSTEPSVTERHTLFVGERERIAKAAVQILKGAQVLMIGSGSTTVHTARRIAVEMKNITVLTHSFGVATVLAINPTIKVVMLPGDYHATEGATVGAHAVSFLNSFYADFTILGASGLGPDGPSDALLECGAVYSAMVSRAARTIVVADHSKHDRLFPARYAPWRDIAHVVTDKAPGEDLTESLDSSGVKLTVCLEHHHHHH	soluble
MDGHAPTFTSIQDIQGEGASSPFIDGYPYITTEEHFVTGVVSAVTSGLTKGFYLQAIENDNNDKTSEGLFIHTNAADTELKPGDVVCVKGKVQEYYNNTQLSSDATSYVKTGTSDIPLVTPLVIKEGETLRDALERHEGMQVTLNSASDLFVTRNFSYDYDSKRNNMMLSHQAPLFKPTQLHAADSAEAVALAKQNAENRVFLESDAKAPNGKIPYYPEFGQDLDQDGSSEQHIRLGSRVEGLQGVVNYSYNEYRLIATNDVNNTNFVAAGDGFDVERKAAPAIAESDLRVASFNVLNYFTSVALEHHHHHH	not soluble
MDGIRVYIETFGCTFNQADSEIMAGVLREEGAVLTGIDDADVIIINTCYVKHPTEHKVINRIKKIQETYPEKGLVVAGCMVEIDPSKLEAISGDASWLGPHQLRRAPQAVRAASNGLVERITGFTSDVKVKVPRVRSNPLIHIIPICEGCNGSCSYCCTRFARGRIQSYPSDLIISEAREAVASGCREIQLTAQDTAAYGVDTGEKLSDIIKGISGIPGNFRIRVGMMHPASVLRDLDGLVEAFKSEKVYSFLHLPVQSGSDSVLADMERGHTVDEFRMIVERFRSEIPDISIATDIIVGYPTEEREDFMDTCSLLEEVKPSFIHLSKYRHRPRARSSSLDEIDFRELRRRSRALEELKMRITEEENRRLVGSFQEILVVERGRKGGFIGRTGSYIPVVTETGEPGSFRRVRIRDATGTYLLADLEHHHHHH	soluble
MDGPHGTPVLDRIAKLREELPPPAVPGKGQKTDGRWFDGNGAVRDSVSGKDVDSEEAWRLLRESGIPLPRPPVVAHAEMKVAAAMRRLNVRHAVLVITNVPCDERWSCENLLPAVLPVGCSLSVHGPGYQRTFHGRTPKW	not soluble
MDGQADGMFIDRAEDARKQEITEQYLNFLDNQADTFHYRQKIVKMMNDGESRLVMNLDEIREILPERAEGLLTQSVLEMNCLQSALQMAINRSDVQAVVKTGFHVGFEGTFGERHVNPRTLKSSYLGNLVCCEGIVTKCSTVRQKLLTSVHYCPATNKVLEKKFADFTMLDTAVTNNNYPTEDENKNPLETEFGHSVYKDHQTFTIQELPESAPAGQLPRAVDCVADLDLADRVKPGDRVRIIGVFRVLPNKQNGVSSGSFRSIIIINHIQMLSKEVIPNFEPQDVKDVRKISKSRNPFELLARSLAPSICGHEETKKALLCLLLGGMEKILNNGSRLRGDINVLLIGDPSVAKSQLLRYVLRMAPRAITTTGRGSSGVGLTAAVTTDPDSGERRLEAGAMVLADRGVVCIDEFDKMSDIDRTAIHEVMEQGRVTISKAGIHAKLNARCSVLAAANPVYGRYNPFKSPMENIGMQDSLLSRFDLIFVLLDEHDADKDANVAEHVLKLHTYRTQGEADGTVLPMGGGVETISTINMETKKASSSIYEENTQWAGIQDTKILTMDFMRKYIHLARSVQPKLTDEATEYISEVYADIRSFDITKTDQERTMPVTARQLETLIRLSTAIAKARFSKKVEREDTEKAYNLLHFACFKEKPKARQEYEKKKRAPRIDGDDDEDQSDNEDMATSEEPQSSSVPTAATPRRGVRRRAEDDDSQDSMMDTTIGESQPTAKKARTGPAAIGVDRYKELRKYVRKAFDDIGSTDDMVELQIITDSVQTQAGSHKFTEDELKAGYEQLENDNAAMIAEDKITLI	not soluble
MDIGTQLKFLRNRRGWTMQEVADRIGKNDSTYSGYETNKRKPNAEVLVQLADIFDTTTDFILGRTENPNGLNFNVKDFLDQGRLHSDGVEITDEQAEIANVLLRQLLQRKQQ	not soluble
MDIISLRKSPQYLEEAIAYFQRKWADENSRMVYDNCFRTCLESESPLPQWYLLINGEGEIIGCAGLATNDFNSRMDLYPWLVALFIEEQYRGHNYGNLLIKAVEEDTRRLGFGNLYLCTTHTGYYEHFNFVYIGDCYHPWGEHTR	not soluble
MDILQTRYFELSNPTTGEHKFYELTLHEDGTLISRYGRIGANGQNKTQQFNSVEAMLKAADKTTAEKLNKGYQVANAGETAAQETRHQRILRNVREFYELISNGDSKLAQRCSVEFKAFIEDEDNKEEYEDQDNELINNGIREAADWELVFFVDWKDTESMLDVLDTLCSNLNIDIVFDWGCDVPEDELKVGQIMLLAHEQLQQQGFALWHWDTGHDAYLGWIARMAYQTQIASCVQALDLDAAYPNPEKLTLEHHHHHH	soluble
MDKALTNHVIILSFDCLSALDFPILQKLPHFQSLIKKGTVVEKVEPIYPSVTYPSHSTIVTGNYPNKHGVVSNTLLQPGRESPDWHWYRKSIKGTTLYDEARKANLTTAALLWPVTGRANIDYNLPEIFPNRPWQNQVLVSLFSGSPLYQLDLNRRFGHIRNGLSQPELDDFVLASAVHTIQTKKPNIMFVHFTDLDTQRHYHGFESNETIAAIQRHDERLGKIIQALKESDLYEESTIIALGDHSALSENKSIQLNVLFHQRGLISLNKKRKLVDWKAYCQSCDGSAYVYVKDKNDTDTIREVQLLLEELLQNKQNGIEFILHDEAAKDCGADGNCLFMLEAREGYYFTENYTGDFIKEITEKDVTLSKKYTFGTHGYSPTKPNYETIFIAAGKGIKSGVTVPYMRLIDEGPTIARLLGLHLGETDGAIVEDLLQLLEHHHHHH	soluble
MDKELIKKNIKLMDATIEKMIHVMSSIHKLQLSVKELEDSNELTVSYVKRECTKLEERVKELRPSISRCVFMYREYVEEFETKLRDRIVTEKFFRIKRFYGKEVLAFKEFQEKYQNYIPKDIIDIKKQVRQKLEEVGYEIDGAFEGDFTSWVGVYARPKDKPTYLDPANAEEVVLQEKYSVNGFKQDFSEWFEFEIKDNVVYGILEHHHHHH	soluble
